Publication doi:10.1101/294439

Key:
Assay in all cases: SEC
[1] = molecular target: Piper methysticum chalcone synthase (PmCHS) (kava (Piper methysticum))
[2] = molecular target: Piper methysticum kavalactone reductase 1 (PmKLR1) (kava (Piper methysticum))
[3] = molecular target: Piper methysticum styrylpyrone synthase 1 (PmSPS1) (kava (Piper methysticum))
[4] = molecular target: Piper methysticum styrylpyrone synthase 2 (PmSPS2) (kava (Piper methysticum))

A stoichiometry N [1] of 2 was found for “Piper methysticum chalcone synthase (PmCHS) (enzyme)” in this work.

A stoichiometry N [2] of 2 was found for “Piper methysticum kavalactone reductase 1 (PmKLR1) (enzyme)” in this work.

A stoichiometry N [3] of 2 was found for “Piper methysticum styrylpyrone synthase 1 (PmSPS1) (enzyme)” in this work.

A stoichiometry N [4] of 2 was found for “Piper methysticum styrylpyrone synthase 2 (PmSPS2) (enzyme)” in this work.
